Laboratory results taken from the supplement of paper PMC7877785.
± gives the uncertainty stated by the source.

Assay: self-splicing fitness, log relative to wild type (ln ratio); higher = more splicing; Tetrahymena group I intron in knt gene, E. coli kanamycin selection, DiMSum; sequences stand for … in CUCUCU…GGAGGGAAAAGUUAUCAGGCAUGCACCUGGUAGCUAGUCUUUAAACCAAUAGAUUGCAUCGGUUUAAAAGGCAAGACCGUCAAAUUGCGGGAAAGGGGUCAACAGCCGUUCAGUACCAAGUCUCAGGGGAAACUUUGAGAUGGCCUUGCAAAGGGUAUGGUAAUAAGCUGACGGACAUGGUCCUAACCACGCAGCCAAGUCCUAAGUCAACAGAUCUUCUGUUGAUAUGGAUGCAGUUCACAGACUAAAUGUCGGUCGGGGAAGAUGUAUUCUUCUCAUAAGAUAUAGUCGGACCUCUCCUUAAUGGGAGCUAGCGGAUGAAGUGAUGCAACACUGGAGCCGCUGGGAACUAAUUUGUAUGCGAAAGUAUAUUGAUUAGUUUUGGAGUACUCGUGGUCG
Procedure, shortened: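 Colonies from six replicate transformations of E. coli BL21(DE3) were pooled and amplicon-sequenced on an Illumina HiSeq 2500. The library placed an intron with all eight P1ex-region nucleotides randomised inside the knt kanamycin-resistance gene on pET-22b(+), and cells grew overnight at 37°C or 30°C on LB agar with or without 25 μg/mL kanamycin (plus 100 μg/mL carbenicillin, 50 μM IPTG, 0.2% rhamnose). Fitness is the DiMSum error-weighted combination of wild-type-normalised replicate fold changes, kanamycin versus none.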

| Sequence | self-splicing fitness (ln) (30 °C) | self-splicing fitness (ln) (37 °C) |
| --- | --- | --- |
| CGUCAGCAAUAUUACGGCGG | -1.01 ± 0.082 | 0.0141 ± 0.11 |
| ACAUAGCAAUAUUACGUCAA | -3.99 ± 0.21 | -1.63 ± 0.11 |
| AGAAAGCAAUAUUACGCCCC | -0.22 ± 0.36 | – |
| AGGUAGCAAUAUUACGAGUG | -2.867 ± 0.019 | -1.58 ± 0.034 |
| UUAGAGCAAUAUUACGGUCU | -3.05 ± 0.41 | -2.66 ± 0.48 |
| AGUGAGCAAUAUUACGCUCA | – | -2.13 ± 0.25 |
| ACCCAGCAAUAUUACGCCAC | -4.62 ± 0.42 | -1.82 ± 0.31 |
| GAGGAGCAAUAUUACGACCU | -2.45 ± 0.41 | – |
| GCAUAGCAAUAUUACGUUCU | -2 ± 0.096 | -0.899 ± 0.1 |
| CUCAAGCAAUAUUACGUCGU | -3.21 ± 0.15 | -1.12 ± 0.11 |
| UACAAGCAAUAUUACGGAAG | -4.3 ± 0.46 | -2.46 ± 0.34 |
| AGCGAGCAAUAUUACGUACA | -2.08 ± 0.31 | -1.89 ± 0.2 |
| GUAAAGCAAUAUUACGUAAA | -2.08 ± 0.1 | -0.853 ± 0.11 |
| UUGUAGCAAUAUUACGGAGC | -3.08 ± 0.25 | -2.38 ± 0.29 |
| UACCAGCAAUAUUACGACGU | -2.11 ± 0.082 | -0.692 ± 0.089 |
| CAUCAGCAAUAUUACGACGA | -1.38 ± 0.16 | -0.863 ± 0.14 |
| AGGUAGCAAUAUUACGUUAA | -2.881 ± 0.025 | -1.91 ± 0.037 |
| GUUUAGCAAUAUUACGCUAU | – | -1.56 ± 0.29 |
| GGUGAGCAAUAUUACGUGGC | – | -2.59 ± 0.33 |
| AAGCAGCAAUAUUACGGUGG | -3.64 ± 0.18 | -1.98 ± 0.17 |
| GAACAGCAAUAUUACGGUGU | -2.02 ± 0.066 | -0.373 ± 0.069 |
| CUUCAGCAAUAUUACGCCAA | – | -2.31 ± 0.48 |
| AGAUAGCAAUAUUACGUAUG | -2.57 ± 0.15 | -2.3 ± 0.17 |
| CCCCAGCAAUAUUACGGGGU | -3.9 ± 0.12 | -2.54 ± 0.11 |
| CAAUAGCAAUAUUACGUCUG | -0.324 ± 0.1 | -0.58 ± 0.13 |

| Sequence | self-splicing fitness (ln) (30 °C) | self-splicing fitness (ln) (37 °C) |
| --- | --- | --- |
| GCCGAGCAAUAUUACGAGUU | -1.62 ± 0.12 | -0.709 ± 0.15 |
| GCUCAGCAAUAUUACGCGAU | -2.55 ± 0.15 | -1.51 ± 0.14 |
| ACAUAGCAAUAUUACGACGC | -0.172 ± 0.071 | 0.801 ± 0.1 |
| CGGCAGCAAUAUUACGGCGU | -1.6 ± 0.097 | -0.949 ± 0.1 |
| GCUGAGCAAUAUUACGUUUA | -2.35 ± 0.24 | -1.87 ± 0.25 |
| GUAUAGCAAUAUUACGUAGA | – | -2.07 ± 0.32 |
| CACUAGCAAUAUUACGGUGG | -2.3 ± 0.067 | -0.616 ± 0.075 |
| GGCGAGCAAUAUUACGAUCU | -0.834 ± 0.12 | 0.229 ± 0.14 |
| CAAGAGCAAUAUUACGGCUU | -3.51 ± 0.39 | -2.36 ± 0.17 |
| UUGCAGCAAUAUUACGCGGA | -1.29 ± 0.12 | -0.882 ± 0.13 |
| ACGAAGCAAUAUUACGGCAG | -2.17 ± 0.13 | -1.58 ± 0.14 |
| ACUGAGCAAUAUUACGCACU | -0.721 ± 0.13 | -0.386 ± 0.17 |
| CCGUAGCAAUAUUACGUGAG | -3.11 ± 0.34 | -2.51 ± 0.38 |
| UACUAGCAAUAUUACGACGG | -0.517 ± 0.12 | -0.301 ± 0.15 |
| CGAAAGCAAUAUUACGAAUU | -4.27 ± 0.29 | -1.55 ± 0.14 |
| GGUAAGCAAUAUUACGGCAA | -0.143 ± 0.12 | -0.18 ± 0.15 |
| GCUCAGCAAUAUUACGUGUU | -0.538 ± 0.055 | 0.555 ± 0.064 |
| GGUAAGCAAUAUUACGUAAU | -1.21 ± 0.096 | -0.781 ± 0.12 |
| CGGGAGCAAUAUUACGUAUA | -3.33 ± 0.33 | -2.4 ± 0.25 |
| CGUCAGCAAUAUUACGGGCG | -3.15 ± 0.16 | -2.8 ± 0.21 |
| AGGCAGCAAUAUUACGCGUA | -0.695 ± 0.09 | -0.127 ± 0.095 |
| GGGUAGCAAUAUUACGGGCC | -2.03 ± 0.38 | – |
| GAGGAGCAAUAUUACGGACG | -3.42 ± 0.36 | -0.785 ± 0.49 |
| GUAGAGCAAUAUUACGAUGG | -2.34 ± 0.091 | -1.59 ± 0.11 |
| GUAAAGCAAUAUUACGAGUC | -2.56 ± 0.15 | -1.38 ± 0.19 |

| Sequence | self-splicing fitness (ln) (30 °C) | self-splicing fitness (ln) (37 °C) |
| --- | --- | --- |
| AUUUAGCAAUAUUACGAUGG | -2.89 ± 0.34 | – |
| GCAGAGCAAUAUUACGUAAC | -2.84 ± 0.29 | 0.113 ± 0.22 |
| UUUAAGCAAUAUUACGUUCU | -1.53 ± 0.11 | -0.963 ± 0.11 |
| UAGCAGCAAUAUUACGGAGA | -3.24 ± 0.33 | -2.18 ± 0.14 |
| UUGUAGCAAUAUUACGCCAG | -0.515 ± 0.14 | -0.137 ± 0.2 |
| AACCAGCAAUAUUACGGGUA | -0.823 ± 0.045 | -0.376 ± 0.055 |
| UCGCAGCAAUAUUACGCUGC | -2.62 ± 0.49 | -0.264 ± 0.26 |
| AACUAGCAAUAUUACGUAUU | -2.04 ± 0.082 | -0.837 ± 0.11 |
| UCUCAGCAAUAUUACGAUCG | -1.29 ± 0.12 | -0.618 ± 0.15 |
| GGACAGCAAUAUUACGCGAU | -2.52 ± 0.17 | -2.52 ± 0.17 |
| GAGCAGCAAUAUUACGGCUA | -0.634 ± 0.1 | -0.0591 ± 0.15 |
| GGUUAGCAAUAUUACGACAU | 0.0748 ± 0.014 | 0.332 ± 0.034 |
| UCAAAGCAAUAUUACGCUCC | – | -2.37 ± 0.48 |
| UGUUAGCAAUAUUACGGGGC | -3.37 ± 0.34 | -3.32 ± 0.46 |
| CUGUAGCAAUAUUACGCCAU | -3.3 ± 0.34 | – |
| GGCUAGCAAUAUUACGCGGC | -3.55 ± 0.43 | -2.19 ± 0.46 |
| AUAAAGCAAUAUUACGCCAG | -0.993 ± 0.12 | -0.785 ± 0.16 |
| CCAGAGCAAUAUUACGAUGU | -3.69 ± 0.23 | -1.83 ± 0.17 |
| GACCAGCAAUAUUACGUUGA | -0.701 ± 0.053 | -0.203 ± 0.066 |
| AGUGAGCAAUAUUACGUUAU | -3.13 ± 0.17 | -3.08 ± 0.27 |
| AUAGAGCAAUAUUACGGUCA | -1.48 ± 0.14 | -0.634 ± 0.21 |
| UGAUAGCAAUAUUACGCAUU | -2.52 ± 0.17 | -2.11 ± 0.17 |
| CCCCAGCAAUAUUACGACUC | -2.97 ± 0.12 | -2.11 ± 0.21 |
| CCGCAGCAAUAUUACGUGCG | -4.67 ± 0.22 | -2.86 ± 0.15 |
| AUGGAGCAAUAUUACGGUUG | -4.12 ± 0.3 | -2.21 ± 0.23 |

| Sequence | self-splicing fitness (ln) (30 °C) | self-splicing fitness (ln) (37 °C) |
| --- | --- | --- |
| CUAUAGCAAUAUUACGGUGU | -4.24 ± 0.27 | -1.93 ± 0.22 |
| AUGUAGCAAUAUUACGCUAG | -1.61 ± 0.21 | -0.5 ± 0.22 |
| GGUGAGCAAUAUUACGUCUA | -1.91 ± 0.16 | -1.42 ± 0.15 |
| AAAUAGCAAUAUUACGGGAG | -2.29 ± 0.14 | -1.84 ± 0.19 |
| AAGUAGCAAUAUUACGGCGG | -2.56 ± 0.17 | -0.842 ± 0.15 |
| GUCCAGCAAUAUUACGUUAC | -1.55 ± 0.089 | -0.179 ± 0.1 |
| ACCGAGCAAUAUUACGACCA | – | -0.694 ± 0.33 |
| UGGCAGCAAUAUUACGGCAU | -1.18 ± 0.083 | -0.388 ± 0.092 |
| UGGGAGCAAUAUUACGAACU | -0.981 ± 0.1 | -1.42 ± 0.19 |
| CGUAAGCAAUAUUACGGUCA | -2.2 ± 0.15 | -0.467 ± 0.12 |
| CAACAGCAAUAUUACGAUAG | -0.377 ± 0.052 | 0.653 ± 0.07 |
| CCGCAGCAAUAUUACGCAUC | -3.93 ± 0.28 | -1.95 ± 0.22 |
| AGCCAGCAAUAUUACGGGAA | -2.59 ± 0.19 | -0.667 ± 0.12 |
| AACAAGCAAUAUUACGAGUU | -3.35 ± 0.099 | -1.5 ± 0.091 |
| CCCUAGCAAUAUUACGUGAG | -3.42 ± 0.22 | -2.38 ± 0.23 |
| AUCCAGCAAUAUUACGGUUG | -2.95 ± 0.1 | -1.03 ± 0.087 |
| CGGUAGCAAUAUUACGAUCU | -0.105 ± 0.081 | 0.492 ± 0.12 |
| GCCGAGCAAUAUUACGGCAC | -2.24 ± 0.19 | -1.71 ± 0.23 |
| CUUCAGCAAUAUUACGUACU | -4.13 ± 0.19 | -2.8 ± 0.19 |
| UAGAAGCAAUAUUACGCGAA | -1.61 ± 0.18 | -0.748 ± 0.17 |
| UAGUAGCAAUAUUACGAAUU | -4.36 ± 0.36 | -2.27 ± 0.27 |
| GAACAGCAAUAUUACGAGAC | -2.13 ± 0.22 | -1.21 ± 0.18 |
| ACUAAGCAAUAUUACGUUUU | -2.55 ± 0.093 | -1.54 ± 0.1 |
| AGGAAGCAAUAUUACGAUAC | -3.27 ± 0.26 | -2.02 ± 0.2 |
